In the supplement of paper PMC10567573:

B1: STX5 (parent)
chain: ESTIVELGSIFQQLAHMVKEQEET
B2: CCND2 (parent)
chain: YFKCVQKDIQPYMRRMVATWMLEV

Variants of: B1
Assay: protein stability index of a GFP-peptide fusion (GPS, HEK-293T) (PSI 1-6); higher = more stable
Conditions: c terminus: a fixed tail appended
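Note: lentivirally expressed fusions sorted by FACS into six bins by GFP to DsRed ratio, PSI derived from sequencing read proportions per bin multiplied by bin number.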

Point of comparison: I4H, protein stability index 3.14. Against it:
- S2M — lower, 1
- S2Y — lower, 1.7
- S2P — lower, 1.7
- S2Q — lower, 1.97
- S2G — lower, 1.78
- S2A — lower, 1.39
- S2N — lower, 1.97
- S2W — lower, 2.19
- S2L — lower, 2.28
- S2I — lower, 1.86
- S2F — lower, 2.93
- S2R — lower, 1.25
- S2K — lower, 2.24
- S2C — lower, 3.01
- S2V — lower, 3.07
- S2H — lower, 1.92
- S2D — lower, 2.47
- S2T — lower, 2.05
- S2E — lower, 2.62
- T3N — lower, 2.31
- T3V — lower, 2.56
- T3E — lower, 1.43
- T3W — lower, 1.24
- T3Y — lower, 2.05
- T3C — lower, 2.02
- T3H — lower, 2.4
- T3F — lower, 1.3
- T3M — lower, 1.44
- T3I — lower, 2.94
- T3R — higher, 3.19
- T3A — lower, 2.96
- T3D — lower, 2.04
- T3L — lower, 1.85
- T3S — lower, 2.72
- T3Q — higher, 3.88
- T3K — lower, 2.83
- T3P — lower, 3.03
- V5M — lower, 2.56
- V5W — lower, 2.22
- V5S — lower, 2.46
- V5F — lower, 1.83
- V5G — lower, 2.79
- V5N — lower, 2.04
- V5H — lower, 1.71
- V5R — lower, 2.88
- V5I — lower, 2.55
- V5E — lower, 2.12
- V5L — lower, 2.04
- V5Y — lower, 2.28
- V5D — lower, 3
- V5C — lower, 2.58
- V5K — lower, 3.1
- V5T — lower, 1.99
- V5P — higher, 3.5
- V5Q — lower, 2.07
- V5A — lower, 2.28
- I4W — lower, 2.54
- I4S — lower, 2.64
- I4L — lower, 1.81
- I4N — lower, 3.05
- I4Y — lower, 1.91
- I4K — lower, 2.55
- I4T — lower, 2.73
- I4R — lower, 3
- I4A — lower, 2.27
- I4C — lower, 2.83
- I4F — lower, 2.29
- I4M — lower, 1.57
- I4Q — higher, 3.69
- I4G — lower, 2.42
- I4V — higher, 3.59
- I4E — lower, 2.8
- I4P — lower, 2.93
- I4D — lower, 2.78
- E6C — lower, 2.06
- E6D — lower, 1.63
- E6A — lower, 1.65
- E1K — lower, 1.87
- E1D — lower, 2.77
- E1I — lower, 3.04
- E1T — lower, 2.26
- E1P — lower, 2.71
- E1G — lower, 2.69
- E1L — lower, 2.6
- E1R — lower, 2.27
- E1W — lower, 1.61
- E1Q — lower, 1.68
- E1H — lower, 1.27
- E1M — lower, 2.45
- E1S — lower, 1.9
- E1C — lower, 2.31
- E1F — lower, 2.08
- E1V — lower, 1.79
- E1Y — lower, 2.49
- E1A — lower, 2.13
- E1N — lower, 2.22

Variants of: B2
Assay: as above
Conditions: c terminus: a fixed tail appended

Point of comparison: V24D, protein stability index 1.56. Against it:
- L22Y — higher, 2
- L22N — higher, 1.65
- L22T — higher, 3
- L22S — higher, 2.72
- L22H — higher, 1.59
- L22A — higher, 3.01
- L22P — higher, 1.63
- L22C — higher, 2.25
- L22W — higher, 2.6
- L22Q — higher, 1.96
- L22E — higher, 1.74
- L22F — higher, 4.78
- L22D — higher, 1.89
- L22I — higher, 2.61
- L22R — higher, 1.96
- L22V — higher, 2.94
- L22K — higher, 2.34
- L22G — higher, 2.07
- E23N — higher, 2.39
- E23W — higher, 3.1
- E23Y — higher, 3.34
- E23H — higher, 2.28
- E23C — higher, 2.61
- E23G — higher, 3.51
- E23I — higher, 3.03
- E23A — higher, 1.78
- E23F — higher, 2.5
- E23K — higher, 2.31
- E23D — higher, 2.08
- E23M — higher, 2.9
- E23S — higher, 3.08
- E23L — higher, 3.11
- E23Q — higher, 2.13
- E23T — higher, 2.88
- E23R — higher, 2.96
- E23V — higher, 2.73
- E23P — higher, 3.09
- V24Y — higher, 2.06
- V24C — higher, 1.93
- V24M — higher, 2.09
- V24I — higher, 3.24
- V24F — higher, 3.08
- V24E — higher, 2.42
- V24K — higher, 1.63
- V24A — higher, 2.41
- V24H — higher, 1.94
- V24T — higher, 1.9
- V24P — higher, 1.91
- V24L — higher, 2.68
- V24Q — higher, 2.5
- V24G — higher, 2.9
- V24W — higher, 1.91
- V24R — higher, 2.65
- V24S — higher, 2.97
- M21W — higher, 4.25
- M21F — higher, 1.96
- M21E — higher, 2.72
- M21I — higher, 2.58
- M21L — higher, 1.76
- M21N — higher, 2.54
- M21S — higher, 3.49
- M21P — higher, 2.24
- M21D — higher, 2.43
- M21H — higher, 2.08
- M21K — higher, 3.19
- M21R — higher, 1.86
- M21G — higher, 2.52
- M21V — higher, 2.55
- M21Q — higher, 1.76
